Laboratory results reported in US12180485B2, “Repressible control of gene expression” (TRUSTEES OF BOSTON UNIVERSITY, priority 2020, dated 2024).

B1: SEQ ID NO: 801: inducible system polypeptide, probably Table 20 (GID-GAI) (protein)
chain: MLDLASLILIEKKKSFAKGMGVKSTLVSGSKVYMTTFAEGSDARLEKIVEGDSIRSVNEGEAFSAEMADKNAGYKIGNAKFSHPKGYAVVANNPLYTGPVQQDMLGLKETLEKRYFGESADGNDNICIQVIHNILDIEKILAEYITNAAYAVNNISGLDKDIIGFGKFSTVYTYDEFKDPEHHRAAFNNNDKLINAIKAQYDEFDNFLDNPRLGYFGQAFFSKEGRNYIINYGNECYDILALLSGLRHWVVHNNEEESRISRTWLYNLDKNLDNEYISTLNYLYDRITNELTNSFSKNSAANVNYIAETLGINPAEFAEQYFRFSIMKEQKNLGFNITKLREVMLDRKDMSEIRKNHKVFDSIRTKVYTMMDFVIYRYYIEEDAKVAAANKSLPDNEKSLSEKDIFVINLRGSFNDDQKDALYYDEANRIWRKLENIMHNIKEFRGNKTREYKKKDAPRLPRILPAGRDVSAFSKLMYALTMFLDGKEINDLLTTLINKFDNIQSFLKVMPLIGVNAKFVEEYAFFKDSAKIADELRLIKSFARMGEPIADARRAMYIDAIRILGTNLSYDELKSGGSGSGSSGGSGTMAASDEVNLIESRTVVPLNTWVLISNFKVAYNILRRPDGTFNRHLAEYLDRKVTANANPVDGVFSFDVLIDRRINLLSRVYRPAYADQEQPPSILDLEKPVDGDIVPVILFFHGGSFAHSSANSAIYDTLCRRLVGLCKCVVVSVNYRRAPENPYPCAYDDGWIALNWVNSRSWLKSKKDSKVHIFLAGDSSGGNIAHNVALRAGESGIDVLGNILLNPMFGGNERTESEKSLDGKYFVTVRDRDWYWKAFLPEGEDREHPACNPFSPRGKSLEGVSFPKSLVVVAGLDLIRDWQLAYAEGLKKAGQEVKLMHLEKATVGFYLLPNNNHFHNVMDEISAFVNAECLDLASLIL
B2: Split 263/264: RfxCas13d split at 263/264 (SEQ ID NOs: 14, 15) with GIB CID domains (protein)
chain 1: IEKKKSFAKGMGVKSTLVSGSKVYMTTFAEGSDARLEKIVEGDSIRSVNEGEAFSAEMADKNAGYKIGNAKFSHPKGYAVVANNPLYTGPVQQDMLGLKETLEKRYFGESADGNDNICIQVIHNILDIEKILAEYITNAAYAVNNISGLDKDIIGFGKFSTVYTYDEFKDPEHHRAAFNNNDKLINAIKAQYDEFDNFLDNPRLGYFGQAFFSKEGRNYIINYGNECYDILALLSGLRHWVVHNNEEESRISRTWLYNLDKNL
chain 2: DNEYISTLNYLYDRITNELTNSFSKNSAANVNYIAETLGINPAEFAEQYFRFSIMKEQKNLGFNITKLREVMLDRKDMSEIRKNHKVFDSIRTKVYTMMDFVIYRYYIEEDAKVAAANKSLPDNEKSLSEKDIFVINLRGSFNDDQKDALYYDEANRIWRKLENIMHNIKEFRGNKTREYKKKDAPRLPRILPAGRDVSAFSKLMYALTMFLDGKEINDLLTTLINKFDNIQSFLKVMPLIGVNAKFVEEYAFFKDSAKIADELRLIKSFARMGEPIADARRAMYIDAIRILGTNLSYDELKALADTFSLDENGNKLKKGKHGMRNFIINNVISNKRFHYLIRYGDPAHLHEIAKNEAVVKFVLGRIADIQKKQGQNGKNQIDRYYETCIGKDKGKSVSEKVDALTKIITGMNYDQFDKKRSVIEDTGRENAEREKFKKIISLYLTVIYHILKNIVNINARYVIGFHCVERDAQLYKEKGYDINLKKLEEKGFSSVTKLCAGIDETAPDKRKDVEKEMAERAKESIDSLESANPKLYANYIKYSDEKKAEEFTRQINREKAKTALNAYLRNTKWNVIIREDLLRIDNKTCTLFRNKAVHLEVARYVHAYINDIAEVNSYFQLYHYIMQRIIMNERYEKSSGKVSEYFDAVNDEKKYNDRLLKLLCVPFGYCIPRFKNLSIEALFDRNEAAKFDKEKKKVSGNS
modifications: GIB CID domains attached
B3: SEQ ID NO: 805: inducible system polypeptide, probably Table 20 (GID-GAI) (protein)
chain: MLDLASLILIEKKKSFAKGMGVKSTLVSGSKVYMTTFAEGSDARLEKIVEGDSIRSVNEGEAFSAEMADKNAGYKIGNAKFSHPKGYAVVANNPLYTGPVQQDMLGLKETLEKRYFGESADGNDNICIQVIHNILDIEKILAEYITNAAYAVNNISGLDKDIIGFGKFSTVYTYDEFKDPEHHRAAFNNNDKLINAIKAQYDEFDNFLDNPRLGYFGQAFFSKEGRNYIINYGNECYDILALLSGLRHWVVHNNEEESRISRTWLYNLDKNLDNEYISTLNYLYDRITNELTNSFSKNSAANVNYIAETLGINPAEFAEQYFRFSIMKEQKNLGFNITKLREVMLDRKDMSEIRKNHKVFDSIRTKVYTMMDFVIYRYYIEEDAKVAAANKSLPDNEKSLSEKDIFVINLRGSFNDDQKDALYYDEANRIWRKLENIMHNIKEFRGNKTREYKKKDAPRLPRILPAGRDVSAFSKLMYALTMFLDGKEINDLLTTLINKFDNIQSFLKVMPLIGVNAKFVEEYAFFKDSAKIADELRLIKSFARMGEPIADARRAMYIDAIRILGTNLSYDELKALADTFSLDENGNKLKKGKHGMRNFIINNVISNKRFHYLIRYGDPAHLHEIAKNEAVVKFVLGRIADIQKKQGQNGKNQIDRYYETCIGKSGGSGSGSSGGSGTMAASDEVNLIESRTVVPLNTWVLISNFKVAYNILRRPDGTFNRHLAEYLDRKVTANANPVDGVFSFDVLIDRRINLLSRVYRPAYADQEQPPSILDLEKPVDGDIVPVILFFHGGSFAHSSANSAIYDTLCRRLVGLCKCVVVSVNYRRAPENPYPCAYDDGWIALNWVNSRSWLKSKKDSKVHIFLAGDSSGGNIAHNVALRAGESGIDVLGNILLNPMFGGNERTESEKSLDGKYFVTVRDRDWYWKAFLPEGEDREHPACNPFSPRGKSLEGVSFPKSLVVVAGLDLIRDWQLAYAEGLKKAGQEVKLMHLEKATVGFYLLPNNNHFHNVMDEISAFVNAECLDLASLIL
B4: SEQ ID NO: 804: inducible system polypeptide, probably Table 20 (GID-GAI) (protein)
chain: MAPKKKRKVGIHGVPAAKRDHHHHHHQDKKTMMMNEEDDGNGMDELLAVLGYKVRSSEMADVAQKLEQLEVMMSNVQEDDLSQLATETVHYNPAELYTWLDSMLTDLNSGGSGSGSSGGSGTDKGKSVSEKVDALTKIITGMNYDQFDKKRSVIEDTGRENAEREKFKKIISLYLTVIYHILKNIVNINARYVIGFHCVERDAQLYKEKGYDINLKKLEEKGFSSVTKLCAGIDETAPDKRKDVEKEMAERAKESIDSLESANPKLYANYIKYSDEKKAEEFTRQINREKAKTALNAYLRNTKWNVIIREDLLRIDNKTCTLFRNKAVHLEVARYVHAYINDIAEVNSYFQLYHYIMQRIIMNERYEKSSGKVSEYFDAVNDEKKYNDRLLKLLCVPFGYCIPRFKNLSIEALFDRNEAAKFDKEKKKVSGNSGSGPKKKRKV

Tested on: mCherry expression in HEK293 FT cells
Experiment: Inducible split RfxCas13d (GIB, RAP, ABA, Dano, GRZ CID domains; NES/NLS variants) mCherry knockdown, leakiness and inducibility
Type: cell-based
Settings: for performance in the tested conditions: inducible polypeptide systems of Tables 18-22
Description: FIG. 6A-6C is a series of schematics and graphs showing that split RfxCas13d's reconstituted and functioned to knockdown mCherry expression in HEK293 FT cells FIG. 6A is a schematic showing split sites selected throughout RfxCas13d sequence. FIG. 6B is a bar graph showing mCherry expression under 4 conditions for gibberellin-inducible, rapalog-inducible, and abscisic acid-inducible inducible split Cas13d designs. In FIG. 6B and FIG. 6C, the left-right order of the bars for each split site is the same as the left-right order of the legend for each bar graph.
FIG. 7A-7E is a series of schematics and graphs showing a functional and inducible split Cas13d design. FIG. 7A is a bar graph showing additional split sites selected in RfxCas13d and tested with GIB CID domains. […] In FIG. 7A and FIG. 7C, the left-right order of the bars for each split site is the same as the left-right order of the legend. FIG. 7B is a schematic showing the design to compartmentalize splits. Compartmentalizing moieties facilitates the reduction of leakiness. […] FIG. 7D is a schematic showing the experiment flow for testing reversibility of the inducible split Cas13d's.
FIG. 8A-8B is a series of schematics and graphs showing that split RfxCas13d's reconstituted upon drug-induced dimerization and knocked down mCherry expression in HEK293 FT cells. FIG. 8A is a bar graph showing quantification of system performance. The left-right order of the bars for each split site is the same as the top-down order of the legend. […] System performance in leakiness score (left axis) and induced activity (right axis) by GIB, RAP, ABA, and Dano-inducible split Cas13d designs.
FIG. 10A-10B is a series of schematics and graphs showing performance optimization through separating split Cas13d moieties in different cellular compartments. […] The left-right order of the bars for each bar graph is the same as the top-down order of the legend.
FIG. 11 is a series of schematics and graphs showing the testing of reversed orientation (dark grey dots) of CID domains with respect to split Cas13d pieces against original orientations (light grey dots) designed for GIB, ABA, Dano, and GRZ inducible systems.

[1] = RfxCas13d split with GIB CID domains

| Molecule | performance in the tested conditions | knockdown efficiency [1] | leaky off state activity [1] |
| --- | --- | --- | --- |
| B1 | highest performance |  |  |
| B2 |  | over 60% | minimum leaky off state activity |
| B3 | highest performance |  |  |
| B4 | highest performance |  |  |
